Molecular target: protein G-Fc (Fc specific protein G variant)
Assay: SPR

- Kd: 3.8 nM
Substance: human Fc (Fc domain of IgG) (domain or fragment)
